Source: patent publication US20260285942 (published 2026)

T1: cynomolgus monkey TfR ECD (Macaca fascicularis)
T1 chain: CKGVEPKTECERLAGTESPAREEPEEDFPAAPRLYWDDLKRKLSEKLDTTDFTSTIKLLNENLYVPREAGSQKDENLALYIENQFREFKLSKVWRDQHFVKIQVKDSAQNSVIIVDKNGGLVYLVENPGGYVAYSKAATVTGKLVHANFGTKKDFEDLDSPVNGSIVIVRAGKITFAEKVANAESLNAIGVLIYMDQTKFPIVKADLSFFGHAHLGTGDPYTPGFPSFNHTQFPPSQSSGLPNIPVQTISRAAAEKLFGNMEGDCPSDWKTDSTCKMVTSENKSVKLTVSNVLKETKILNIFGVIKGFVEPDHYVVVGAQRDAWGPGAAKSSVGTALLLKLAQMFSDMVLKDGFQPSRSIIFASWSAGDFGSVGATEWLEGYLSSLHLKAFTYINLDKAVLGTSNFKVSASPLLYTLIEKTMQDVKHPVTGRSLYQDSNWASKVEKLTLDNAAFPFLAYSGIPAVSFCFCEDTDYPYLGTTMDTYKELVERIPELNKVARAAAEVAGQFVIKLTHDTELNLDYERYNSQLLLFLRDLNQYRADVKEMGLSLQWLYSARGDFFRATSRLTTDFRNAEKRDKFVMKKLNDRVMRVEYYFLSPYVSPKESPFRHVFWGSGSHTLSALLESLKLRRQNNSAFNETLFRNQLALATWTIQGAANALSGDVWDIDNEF


Columns and labels:
human TfR ECD = human TfR ECD (human); experiment: SPR
[1] = biological target: T1, cynomolgus monkey TfR ECD; experiment: SPR

Binder | Kd (human TfR ECD) | Kd [1]
hTfR affinity peptide 1 (designed binder) QVQLVESGGGLVHPGGSLRLSCVASGTSFSLNVVTWYRQALGKQREWVATINQSEAPTYADSVKGRFTISRDGAKNTVYLQMNSLVTEDTALYYCYDRYNEIRGQGTQVTVSS | 16.5 nM | 17.6 nM
hTfR affinity peptide 2 (designed binder) QVQLVESGGGLVHPGGSLSLSCAASGTSFSFNTVTWYRQALGKQREWVATINGSGAPTYADSVKGRFTISRDGAKNTVYLLMNSLVTEDTALYYCYDRYNEIRGQGTQVTVSS | 16.5 nM | 17.6 nM
